In patent US20100028952A1, “FERMENTATION AND PURIFICATION OF ACTINOMADURA CHROMOPROTEIN AND RELATED SPECIES” (WYETH, priority 2006, published 2010):

Assays:
histone H1 in HeLa cells = test: Digestion of histone H1 in HeLa cells, immunoblot; type: cell-based; conditions: HeLa cells incubated overnight at 37° C.; anti-histone H1 immunoblot
Protocol: To study whether the digestion of histones by the chromoprotein occurs in intact cells, HeLa cells were incubated with compounds overnight at 37° C. Cell lysates were analysed by SDS-PAGE and protein immunoblotting using anti-histone H1 antibodies (Santa Cruz Biotechnologies). […] This activity can contribute to antitumor effects by digesting histones in chromatin, making the DNA more accessible for cleavage. This appears to be a unique activity of the chromoprotein enediynes.

Human PGP (MDR1) = target: T1, Human PGP (MDR1) (Homo sapiens, UniProt P08183); test: Transport by P-GP (MDR-1); type: cell-based; conditions: result in words
T1 construct: cells expressing clinically relevant levels of MDR1 (KB-8-5 cells) remain sensitive to the complex; endogenous in cells; host or cells: KB (P-GP -), KB-8-5 (+), KB-V-1 (+++)
T1 sequence (P08183 whole entry): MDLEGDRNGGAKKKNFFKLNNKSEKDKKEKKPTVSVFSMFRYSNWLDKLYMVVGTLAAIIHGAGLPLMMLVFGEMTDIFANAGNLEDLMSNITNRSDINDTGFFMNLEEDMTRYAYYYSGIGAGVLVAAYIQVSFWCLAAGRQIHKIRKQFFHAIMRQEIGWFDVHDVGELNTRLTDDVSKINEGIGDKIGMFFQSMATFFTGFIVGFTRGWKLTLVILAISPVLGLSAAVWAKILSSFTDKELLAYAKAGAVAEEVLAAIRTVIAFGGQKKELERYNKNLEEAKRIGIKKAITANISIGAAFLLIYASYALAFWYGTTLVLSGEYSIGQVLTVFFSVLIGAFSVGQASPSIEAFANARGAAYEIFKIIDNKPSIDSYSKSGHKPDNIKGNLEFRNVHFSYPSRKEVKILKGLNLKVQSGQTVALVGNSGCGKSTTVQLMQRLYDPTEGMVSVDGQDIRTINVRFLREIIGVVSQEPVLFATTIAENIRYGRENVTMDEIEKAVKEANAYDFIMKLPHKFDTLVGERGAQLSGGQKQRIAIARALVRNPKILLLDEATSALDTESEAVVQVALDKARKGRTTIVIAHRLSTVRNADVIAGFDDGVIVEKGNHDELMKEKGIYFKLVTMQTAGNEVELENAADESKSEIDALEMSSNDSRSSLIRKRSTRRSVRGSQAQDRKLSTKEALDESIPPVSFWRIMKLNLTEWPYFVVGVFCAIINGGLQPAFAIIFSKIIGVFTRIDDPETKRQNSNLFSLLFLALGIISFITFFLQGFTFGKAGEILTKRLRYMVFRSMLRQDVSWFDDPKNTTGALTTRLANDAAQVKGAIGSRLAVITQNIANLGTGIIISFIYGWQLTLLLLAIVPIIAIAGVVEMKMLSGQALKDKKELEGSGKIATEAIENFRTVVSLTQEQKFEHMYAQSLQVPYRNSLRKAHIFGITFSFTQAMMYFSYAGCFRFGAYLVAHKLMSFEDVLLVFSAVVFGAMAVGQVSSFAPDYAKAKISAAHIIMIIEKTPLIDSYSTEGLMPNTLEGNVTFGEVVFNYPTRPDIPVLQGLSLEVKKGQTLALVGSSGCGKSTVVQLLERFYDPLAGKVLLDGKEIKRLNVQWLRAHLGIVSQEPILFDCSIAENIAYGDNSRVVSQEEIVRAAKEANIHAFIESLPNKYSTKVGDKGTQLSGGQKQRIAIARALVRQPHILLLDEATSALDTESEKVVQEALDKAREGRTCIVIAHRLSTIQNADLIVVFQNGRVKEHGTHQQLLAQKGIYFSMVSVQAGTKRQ
Description: Human PGP (MDR1) is an ATP-dependent efflux pump which is capable of transporting many drugs across cell membranes. High level expression of this protein has been linked to multiple drug resistance of tumors. […] The protein component of the chromoprotein probably protects the chromophore from drug efflux mediated by MDR1, and may be responsible for the beneficial antitumor effects in colon cell lines which often express MDR1.

Histone H1 = test: Digestion of histone H1, SDS-PAGE; type: biochemical; conditions: 50 mM Tris-Cl, pH 7.5 overnight at 37° C.
Protocol: Histone H1 was incubated with various concentrations of the chromoprotein in 50 mM Tris-Cl, pH 7.5 overnight at 37° C. (FIG. 29) Digestions of histone were assessed by SDS-polyacrylamide gel electrophoresis (SDS-PAGE), followed by staining of the gel with GelCode Blue (Pierce Biotechnology, Inc, Rockford, Ill.).

[1] = test system: human tumor cell line panel; test: Human tumor cell line panel (whole panel); type: cell-based; conditions: result in words
[2] = test system: HCT116 colon carcinoma cells; test: Uptake of FITC-tagged chromoprotein and apoprotein, fluorescent microscopy / flow cytometry; type: cell-based
Protocol: To determine the mechanism by which the chromoprotein enters cells and exerts its biological activity, the chromoprotein was labeled with a fluorescent tag (FITC) using EZ-Label fluorescent labeling kit (Pierce Biotechnology), according to the manufacturer's recommendation. […] Uptake of labeled material by HCT116 colon carcinoma cells was studied by fluorescent microscopy. Optimum incubation time with cells was 3-6 hours. […] Even though nuclear accumulation is low, the amount is most likely sufficient for biological activity given the potency of the complex.
To determine whether an intact complex of chromophore and apoprotein is required for cellular and nuclear entry, the chromoprotein and apoprotein were labeled with FITC. Uptake of labeled material was studied by fluorescent microscopy. Uptake was similar for both apoprotein and chromoprotein.
To determine whether the entry of chromoprotein into cells is mediated by a saturable (e.g. cell surface receptor-dependent) process, HCT116 cells were incubated with FITC-labeled chromoprotein (FIG. 37, right panel) or apoprotein (FIG. 37, left panel) in the absence or presence of 10-fold excess of unlabeled reagent (unlabelled chromoprotein or apoprotein, respectively). Cells were analysed by fluorescent microscopy (left) or flow cytometry (right). […] Furthermore, a single homogeneous peak observed in flow cytometry histograms indicated uniform uptake of labeled reagent by all cells. Numbers in the histograms are mean channel numbers (FITC fluorescence).
Other means by which a protein complex can enter cells is pinocytosis, where caveolae in the surface of the cell pinch off to form pinosomes that are free within the cytoplasm of the cell. Since pinocytosis is an energy-dependent process that requires a functional tubulin cytoskeletal network, we examined the effect of sodium azide, an energy uncoupling agent and nocodazole, an agent which disrupts the tubulin cytoskeleton on cellular uptake. HCT116 cells were treated with FITC-labeled apoprotein in the absence or presence of sodium azideor nocodazole. […] Since the data appears to rule out a receptor-mediated process, pinocytosis is most likely involved.

With bleomycin the “histone H1 in cells” value (histone H1 in HeLa cells) was “No effect”.

With calicheamicin [reference compound] the MDR1 substrate (Human PGP (MDR1)) was “good substrate for MDR1”, the “digestion of histone H1” value (Histone H1) was “did not cleave histone H1” and the “histone H1 in cells” value (histone H1 in HeLa cells) was “No effect”.

B1: apoprotein: 21G792 apoprotein (SEQ ID NO:150), protein component of the chromoprotein without chromophore (protein)
chain: DTVTVNYDCVGYPSDIAVTIDAPATAGVGDTATFEVSSVVTTGAPQDLPAGEVVTDMAIVVGGAQSGTITASGLTNEATPAGQPVNMVGGEAQITFTSAGSVTFTPSTTTQVDNGAQCTVVGEAPVGATTVVS
modifications: Actinomadura sp. 21G792
In the case of B1, the “in vitro anti-tumor activity” value [1] is reported as “inactive”, the “digestion of histone H1” value (Histone H1) is reported as “no activity” and the “competition of label by unlabeled reagent” value ([2]; 10-fold excess of unlabeled reagent) is reported as “No competition of label was observed”. The “uptake of labeled material, apoprotein versus chromoprotein” value ([2]; FITC labeled) was “similar” and the “effect of sodium azide or nocodazole on uptake of label” value ([2]; FITC-labeled, nocodazole 100 nM) was “Both treatments inhibited uptake of label”.
